Reference: IntAct's records for PubMed 16266891

Target: pim1_human PIM1 (UniProt P11309)

effect of a mutation on the interaction | Substance
increasing interaction | Small ribosomal subunit protein eS19 (Homo sapiens) (from UniProt P39019) R62W
decreasing interaction | Small ribosomal subunit protein eS19 (Homo sapiens) (from UniProt P39019) R101H
increasing interaction | Small ribosomal subunit protein eS19 (Homo sapiens) (from UniProt P39019) R56Q
